One data set addresses T1, ScIleRS (Saccharomyces cerevisiae, UniProt P09436).
T1 construct: gene ILS1; pET28b, E. coli Rosetta(DE3), Ni-NTA (His tag) and size-exclusion chromatography, monomer
T1 sequence (P09436 1-1072): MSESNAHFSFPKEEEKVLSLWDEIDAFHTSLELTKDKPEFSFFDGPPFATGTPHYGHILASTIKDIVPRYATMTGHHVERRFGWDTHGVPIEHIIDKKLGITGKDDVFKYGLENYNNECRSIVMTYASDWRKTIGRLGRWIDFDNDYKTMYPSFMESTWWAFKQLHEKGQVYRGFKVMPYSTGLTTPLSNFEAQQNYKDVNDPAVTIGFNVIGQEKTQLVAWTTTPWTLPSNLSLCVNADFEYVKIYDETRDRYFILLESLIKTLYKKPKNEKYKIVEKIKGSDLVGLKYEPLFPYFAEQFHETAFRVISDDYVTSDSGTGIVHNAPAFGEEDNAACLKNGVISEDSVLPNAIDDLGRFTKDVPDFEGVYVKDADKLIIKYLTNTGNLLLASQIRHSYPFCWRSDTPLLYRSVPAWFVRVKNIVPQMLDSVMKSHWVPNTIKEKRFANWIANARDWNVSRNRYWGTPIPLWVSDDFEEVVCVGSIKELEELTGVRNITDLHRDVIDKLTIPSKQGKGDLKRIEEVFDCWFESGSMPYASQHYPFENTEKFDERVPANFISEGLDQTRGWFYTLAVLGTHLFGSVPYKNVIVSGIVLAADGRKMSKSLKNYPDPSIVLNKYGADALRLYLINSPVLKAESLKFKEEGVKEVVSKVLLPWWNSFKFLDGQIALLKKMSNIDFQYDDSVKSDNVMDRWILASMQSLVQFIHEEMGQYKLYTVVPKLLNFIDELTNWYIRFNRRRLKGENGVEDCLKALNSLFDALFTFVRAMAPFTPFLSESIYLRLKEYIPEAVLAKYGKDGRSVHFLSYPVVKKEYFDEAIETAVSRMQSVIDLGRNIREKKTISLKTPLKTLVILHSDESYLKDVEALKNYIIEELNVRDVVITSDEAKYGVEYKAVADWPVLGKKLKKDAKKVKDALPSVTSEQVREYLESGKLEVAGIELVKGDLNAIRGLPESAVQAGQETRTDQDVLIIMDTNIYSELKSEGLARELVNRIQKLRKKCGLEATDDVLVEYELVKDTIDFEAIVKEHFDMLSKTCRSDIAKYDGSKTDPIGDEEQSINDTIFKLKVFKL
The experiment in a line: ATP-PPi exchange inhibition, global fit. Format: biochemical.

The next data set concerns the target T2, SgIleRS (Streptomyces griseus, UniProt B1W0J8).
T2 construct: gene ileS; ileS from genomic DNA in pET28b, E. coli BL21(DE3), Ni-NTA purified (His tag), ZnCl2 added during growth
T2 sequence (B1W0J8 1-1047): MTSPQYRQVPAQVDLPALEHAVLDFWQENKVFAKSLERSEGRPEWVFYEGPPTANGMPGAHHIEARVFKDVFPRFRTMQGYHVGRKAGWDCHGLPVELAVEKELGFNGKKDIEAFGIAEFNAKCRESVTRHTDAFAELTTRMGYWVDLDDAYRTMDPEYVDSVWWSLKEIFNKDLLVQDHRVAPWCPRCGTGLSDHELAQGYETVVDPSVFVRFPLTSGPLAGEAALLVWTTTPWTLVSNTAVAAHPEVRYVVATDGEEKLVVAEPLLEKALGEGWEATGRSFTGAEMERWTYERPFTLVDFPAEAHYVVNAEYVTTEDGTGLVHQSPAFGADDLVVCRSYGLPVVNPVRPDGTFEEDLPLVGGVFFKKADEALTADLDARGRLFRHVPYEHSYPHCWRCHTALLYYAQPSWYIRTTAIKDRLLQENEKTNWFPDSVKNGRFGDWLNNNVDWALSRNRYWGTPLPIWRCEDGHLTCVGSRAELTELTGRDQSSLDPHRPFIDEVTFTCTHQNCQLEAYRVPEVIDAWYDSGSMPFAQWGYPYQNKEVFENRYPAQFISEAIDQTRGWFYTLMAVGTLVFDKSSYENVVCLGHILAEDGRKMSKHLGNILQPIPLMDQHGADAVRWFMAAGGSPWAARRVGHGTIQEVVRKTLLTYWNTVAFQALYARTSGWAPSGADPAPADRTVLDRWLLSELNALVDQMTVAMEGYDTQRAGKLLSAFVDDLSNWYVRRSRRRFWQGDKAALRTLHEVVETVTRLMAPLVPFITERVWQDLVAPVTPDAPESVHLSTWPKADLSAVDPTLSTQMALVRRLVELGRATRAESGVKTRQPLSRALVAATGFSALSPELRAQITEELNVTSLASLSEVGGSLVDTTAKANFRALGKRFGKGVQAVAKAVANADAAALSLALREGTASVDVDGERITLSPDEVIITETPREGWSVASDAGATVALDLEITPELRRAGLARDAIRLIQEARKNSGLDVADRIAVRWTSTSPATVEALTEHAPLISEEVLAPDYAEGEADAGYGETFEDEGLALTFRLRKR
The data set can be described thus: ATP-PPi exchange inhibition, global fit. The data set is classed as biochemical.

Substrate in data set [1]: CC[C@H](C)[C@H](N)C(=O)O
The experiment in a line: ATP-PPi exchange (amino acid activation). The data set is classed as biochemical, Saccharomyces cerevisiae. The note with it: 30 °C, pH 7.5, 4 mM ATP, 1 mM PPi, 20 mM MgCl2, no tRNA. The source says: (§1) ATP-PPi exchange (amino acid activation) on ScIleRS

Substrate in data set [2]: CC(C)[C@H](N)C(=O)O
The data set can be described thus: ATP-PPi exchange (amino acid activation). The note with it: 30 °C, pH 7.5, 4 mM ATP, 1 mM PPi, 20 mM MgCl2, no tRNA. The data set is classed as biochemical, Saccharomyces cerevisiae.
From the text: as §1

Substrate in data set [3]: CC[C@H](C)[C@H](N)C(=O)O
The data set can be described thus: ATP-PPi exchange (amino acid activation). Format: biochemical, Streptomyces griseus. As to conditions: 30 °C, pH 7.5, 4 mM ATP, 1 mM PPi, 20 mM MgCl2, no tRNA. From the text: (§2) ATP-PPi exchange (amino acid activation) on SgIleRS

Substrate in data set [4]: CC(C)[C@H](N)C(=O)O
The experiment in a line: ATP-PPi exchange (amino acid activation). The note with it: 30 °C, pH 7.5, 4 mM ATP, 1 mM PPi, 20 mM MgCl2, no tRNA. The data set is classed as biochemical, Streptomyces griseus.
From the text: as §2

By Ki is commonly meant a measure of affinity in units of concentration, obtained from inhibition or displacement. Read a high Ki as weaker binding. What is called kcat is the maximal rate divided by the concentration of active sites.

As to `C/C(=C\C(=O)OCCCCCCCCC(=O)O)C[C@@H]1OC[C@H](C[C@@H]2O[C@H]2[C@@H](C)[C@H](C)O)[C@@H](O)[C@H]1O` [mupirocin], the Ki on ScIleRS was determined as 0.028 mM; on SgIleRS, 10 mM.

B1: ScIleRS (Saccharomyces cerevisiae S288C) (protein)
chain: MSESNAHFSFPKEEEKVLSLWDEIDAFHTSLELTKDKPEFSFFDGPPFATGTPHYGHILASTIKDIVPRYATMTGHHVERRFGWDTHGVPIEHIIDKKLGITGKDDVFKYGLENYNNECRSIVMTYASDWRKTIGRLGRWIDFDNDYKTMYPSFMESTWWAFKQLHEKGQVYRGFKVMPYSTGLTTPLSNFEAQQNYKDVNDPAVTIGFNVIGQEKTQLVAWTTTPWTLPSNLSLCVNADFEYVKIYDETRDRYFILLESLIKTLYKKPKNEKYKIVEKIKGSDLVGLKYEPLFPYFAEQFHETAFRVISDDYVTSDSGTGIVHNAPAFGEEDNAACLKNGVISEDSVLPNAIDDLGRFTKDVPDFEGVYVKDADKLIIKYLTNTGNLLLASQIRHSYPFCWRSDTPLLYRSVPAWFVRVKNIVPQMLDSVMKSHWVPNTIKEKRFANWIANARDWNVSRNRYWGTPIPLWVSDDFEEVVCVGSIKELEELTGVRNITDLHRDVIDKLTIPSKQGKGDLKRIEEVFDCWFESGSMPYASQHYPFENTEKFDERVPANFISEGLDQTRGWFYTLAVLGTHLFGSVPYKNVIVSGIVLAADGRKMSKSLKNYPDPSIVLNKYGADALRLYLINSPVLKAESLKFKEEGVKEVVSKVLLPWWNSFKFLDGQIALLKKMSNIDFQYDDSVKSDNVMDRWILASMQSLVQFIHEEMGQYKLYTVVPKLLNFIDELTNWYIRFNRRRLKGENGVEDCLKALNSLFDALFTFVRAMAPFTPFLSESIYLRLKEYIPEAVLAKYGKDGRSVHFLSYPVVKKEYFDEAIETAVSRMQSVIDLGRNIREKKTISLKTPLKTLVILHSDESYLKDVEALKNYIIEELNVRDVVITSDEAKYGVEYKAVADWPVLGKKLKKDAKKVKDALPSVTSEQVREYLESGKLEVAGIELVKGDLNAIRGLPESAVQAGQETRTDQDVLIIMDTNIYSELKSEGLARELVNRIQKLRKKCGLEATDDVLVEYELVKDTIDFEAIVKEHFDMLSKTCRSDIAKYDGSKTDPIGDEEQSINDTIFKLKVFKL
notes: pET28b, E. coli Rosetta(DE3), Ni-NTA (His tag) and size-exclusion chromatography, monomer
Regarding B1, the results for the catalytic constant (kcat) in data set [1] and in data set [2] were 11.4 ± 0.8 s⁻¹ and 8.6 ± 1 s⁻¹, respectively.

B2: SgIleRS (Streptomyces griseus subsp. griseus NBRC 13350) (protein)
chain: MTSPQYRQVPAQVDLPALEHAVLDFWQENKVFAKSLERSEGRPEWVFYEGPPTANGMPGAHHIEARVFKDVFPRFRTMQGYHVGRKAGWDCHGLPVELAVEKELGFNGKKDIEAFGIAEFNAKCRESVTRHTDAFAELTTRMGYWVDLDDAYRTMDPEYVDSVWWSLKEIFNKDLLVQDHRVAPWCPRCGTGLSDHELAQGYETVVDPSVFVRFPLTSGPLAGEAALLVWTTTPWTLVSNTAVAAHPEVRYVVATDGEEKLVVAEPLLEKALGEGWEATGRSFTGAEMERWTYERPFTLVDFPAEAHYVVNAEYVTTEDGTGLVHQSPAFGADDLVVCRSYGLPVVNPVRPDGTFEEDLPLVGGVFFKKADEALTADLDARGRLFRHVPYEHSYPHCWRCHTALLYYAQPSWYIRTTAIKDRLLQENEKTNWFPDSVKNGRFGDWLNNNVDWALSRNRYWGTPLPIWRCEDGHLTCVGSRAELTELTGRDQSSLDPHRPFIDEVTFTCTHQNCQLEAYRVPEVIDAWYDSGSMPFAQWGYPYQNKEVFENRYPAQFISEAIDQTRGWFYTLMAVGTLVFDKSSYENVVCLGHILAEDGRKMSKHLGNILQPIPLMDQHGADAVRWFMAAGGSPWAARRVGHGTIQEVVRKTLLTYWNTVAFQALYARTSGWAPSGADPAPADRTVLDRWLLSELNALVDQMTVAMEGYDTQRAGKLLSAFVDDLSNWYVRRSRRRFWQGDKAALRTLHEVVETVTRLMAPLVPFITERVWQDLVAPVTPDAPESVHLSTWPKADLSAVDPTLSTQMALVRRLVELGRATRAESGVKTRQPLSRALVAATGFSALSPELRAQITEELNVTSLASLSEVGGSLVDTTAKANFRALGKRFGKGVQAVAKAVANADAAALSLALREGTASVDVDGERITLSPDEVIITETPREGWSVASDAGATVALDLEITPELRRAGLARDAIRLIQEARKNSGLDVADRIAVRWTSTSPATVEALTEHAPLISEEVLAPDYAEGEADAGYGETFEDEGLALTFRLRKR
notes: ileS from genomic DNA in pET28b, E. coli BL21(DE3), Ni-NTA purified (His tag), ZnCl2 added during growth
For the molecule B2, the figures for the kcat in data set [3] and in data set [4] were 20.6 ± 1.4 s⁻¹ and 19.3 ± 0.4 s⁻¹, respectively.
